One experiment concerns the target irrelevant antigen. Nature of the experiment: flow cytometry, yeast-displayed VHH, 10 nM irrelevant antigen, streptavidin-PE (Protocol 3, non-specific binding level). (In general: A flow cytometer gives signals particle by particle.)
Experiment [1] addresses T1, Biotinylated Human VEGF165 (ACROBiosystems, Cat. No. VE5-H82Q0) (human, UniProt P15692-4 27-191, biotinylated (site not stated)).
T1 construct: Bought reagent; also called Human VEGF-Bio; human VEGF165-Bio
Nature of the experiment: BLI (Octet RED96e), antibody captured on AHC sensor, 100 nM VEGF165. The method, then: (§1) The antigen and antibody were both diluted with 1×PBST (1×PBS: Sango Biotech, B548117-0500; 0.02% Tween 20: sigma-alorich, P1379), the antigen was used at a concentration of 100 nM, and the antibody was used at a concentration of 50 nM.
(§2) (2) On-board detection of samples (Octet Data Acquisition 11.1.0.11): First, the samples were added to a 96-well plate (Greiner bio-one, 655209), and the system was 200 μL/well. Then the software parameters were set, the plate temperature was set to be 30° C., and the frequency of collecting the standard kinetic signal was 5.0 Hz. Next, the AHC sensor (Fortébio, Cat. No.: 18-0015) was pre-wetted with 1×PBST for 10 minutes, and then detected on the machine. Each cycle consists of the following steps: 1) immersion in the buffer for 60 seconds; 2) detection of whether there is a non-specific binding between antigen and sensor; 3) regeneration of 10 mM glycine solution with pH 1.7; 4) immersion in the buffer for 60 seconds; 5) immobilization of the antibody on the sensor for a time of 20 seconds; 6) immersion of the sensor in the buffer for 180 seconds; 7) binding of the antigen to the antibody for a time of 180 seconds; 8) dissociation of the antigen and the antibody for 10 minutes; 9) sensor regeneration.
A general note: BLI is a label-free optical method that tracks binding on a fibre tip over time.

Experiment [2] concerns the target T1, Biotinylated Human VEGF165 …. Nature of the experiment: BLI (Octet RED96e), antibody captured on AHC sensor, 100 nM VEGF165, 1:1 fit. The method, then: as §1, §2
Fortebio's Data Analysis 11.0 software was used to measure the binding rate (Ka) and dissociation rate (Kd) of the antigen-antibody in a 1:1 binding mode, and then the equilibrium dissociation constant (KD) of the antibody was calculated.

Experiment [3] has the same target. Nature of the experiment: competitive ELISA: antibody titrated with biotinylated human VEGF165 on coated human VEGFR2, SA-HRP, OD450; blocked interaction VEGF165-VEGFR2. The protocol: (§3) A competitive ELISA method was used to determine the activity of the single domain antibody in blocking the binding of VEGF165 to human VEGFR2. […] The next day, the plate was washed 3 times with washing solution PBST (0.05% TWEEN-20: sigma-alorich, P1379), and then the blocking solution PBST+2% BSA (BSA: VWR, 0332-1 KG) was prepared using the washing solution, with 300 μL of blocking solution added to each well, blocked at 37° C. for 1 hour. […] The plate was washed three times with the washing solution, the secondary antibody SA-HRP (sigma, S2438) was diluted 1:5000 with the blocking solution, added to the ELISA plate according to 100 μL/well, and incubated at 37° C. for 1 hour. The plate was washed 3 times with the washing solution, 100 μL of TMB chromogenic solution (Biopanda, Cat. No.: TMB-S-003) were added to each well, and developed color at room temperature in the dark, and then 50 μL of stop solution (Solarbio, Cat. No.: C1058) were added to each well to stop the reaction, and the absorbance was measured at a wavelength of 450 nm.

Experiment [4] shares this target. Kind of experiment: flow cytometry, yeast-displayed clone, 1 nM Human VEGF165-Biotin.
The target is the same in experiment [5]. Nature of the experiment: flow cytometry, yeast-displayed clone, 1 nM Human VEGF165-Biotin; ratio of binding MFI and displaying MFI.
The target is the same in experiment [6]. Kind of experiment: BLI (Octet RED96e), method of Example 4, antibody on AHC sensor. The protocol:
as §1, §2

Experiment [7] has the same target. Kind of experiment: BLI (Octet RED96e), method of Example 4, antibody on AHC sensor, 1:1 fit. The protocol: as §1, §2
Experiment [8] has the same target. Nature of the experiment: competitive ELISA: antibody titrated with biotinylated human VEGF165 (formulated at 700 ng/ml) on coated human VEGFR2, SA-HRP, OD450; blocked interaction VEGF165-VEGFR2. The protocol: as §3
Background: An ELISA detects its analyte on a solid surface through an enzyme-linked reagent.

T1 sequence (P15692 other isoform, or with tags, fused parts or gaps limits assumed): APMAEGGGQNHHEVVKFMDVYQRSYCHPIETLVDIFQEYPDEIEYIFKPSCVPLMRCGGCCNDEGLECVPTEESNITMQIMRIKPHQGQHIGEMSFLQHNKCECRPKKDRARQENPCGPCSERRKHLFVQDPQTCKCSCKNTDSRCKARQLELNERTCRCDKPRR

B1: Y20A6, anti-human VEGF165 single domain heavy chain antibody clone displayed on yeast (VHH, not shown: large carriers; small tags and cut ends)
VHH: AVQLVESGGGLVQAGGSARLSCAASGSTSDIVSMAWYRQAPGKERDLVAAVFAEDWRYVEDSVRGRFTISRDNTKNTVDLQMNNLKPEDTAIYYCNVRLRITDERRRERLDYWGQGTQVTVSS
The molecule B1 came in with an Irrelevant antigen binding signal (PE MFI) with irrelevant antigen of 21.8 MFI.

B2: Ab1910VE6 (Y20A6 VHH fused with IgG1 Fc N297A; original antibody before humanization) (Fc fusion)
VHH: AVQLVESGGGLVQAGGSARLSCAASGSTSDIVSMAWYRQAPGKERDLVAAVFAEDWRYVEDSVRGRFTISRDNTKNTVDLQMNNLKPEDTAIYYCNVRLRITDERRRERLDYWGQGTQVTVSS
notes: Expressed in ExpiCHO cells; not shown: IgG1 Fc N297A (purchased from Taizhou Biointron Inc.)
A word on the Kd: it is the constant that tells how readily two partners part at equilibrium. Low values mean tighter binding, high ones weaker binding. One may read the koff as a measure of how fast the partners let go of each other. Low values mean a long-lived complex, high ones a short-lived complex. In general, kon refers to a measure of how fast the partners come together. Low readings indicate slow association, high ones fast association. In general, IC50 refers to the concentration that inhibits the measured activity by half. Read a low IC50 as greater potency. In turn, B2 showed a Response value in experiment [1] of 0.442. Besides, in experiment [2], binding was characterised by a dissociation constant (Kd) of 6.3 nM, the koff turned out to be 0.00888 s⁻¹ and the kon is 1.41e+06 M⁻¹ s⁻¹. The IC50 in experiment [3] came out at 0.516 µg/mL.

B3: Ab1910VE9 parental sequence displayed on the surface of yeast (VHH)
VHH: EVQLVESGGGLVQPGGSLRLSCAASGSTSDIVSMAWYRQAPGKERELVSAVFAEDWRYVEDSVKGRFTISRDNSKNTVYLQMNSLRAEDTAVYYCNVRLRITDERRRERLDYWGQGTLVTVSS
notes: also called clone number Ab1910VE9
B3: the “Binding MFI” value in experiment [4] came to 42.1 MFI. The Binding force in [5] is 11.7.

B4: Ab1910VE9 (Hz20A6.3 humanized VHH fused with IgG1 Fc N297A) (Fc fusion)
VHH: EVQLVESGGGLVQPGGSLRLSCAASGSTSDIVSMAWYRQAPGKERELVSAVFAEDWRYVEDSVKGRFTISRDNSKNTVYLQMNSLRAEDTAVYYCNVRLRITDERRRERLDYWGQGTLVTVSS
notes: as for B2
Take B4: in experiment [2], the Kd turned out to be 9.91 nM, the koff was 0.0181 s⁻¹ and the kon was 1.82e+06 M⁻¹ s⁻¹. The molecule further gave an IC50 in experiment [3] of 4.67 µg/mL.

B5: Ab1910VE18 (expressed single domain antibody with the Ab1910VE9 parent sequence, molecule before affinity maturation) (VHH)
VHH: EVQLVESGGGLVQPGGSLRLSCAASGSTSDIVSMAWYRQAPGKERELVSAVFAEDWRYVEDSVKGRFTISRDNSKNTVYLQMNSLRAEDTAVYYCNVRLRITDERRRERLDYWGQGTLVTVSS
notes: Its theoretical pI (7.5) differs from that of Ab1910VE9 (7), so it is kept apart from Ab1910VE9
In turn, B5 had a Response value in [6] of 0.142. Moreover, in experiment [7], binding was put at a Kd of 2.23 nM, the koff amounted to 0.00403 s⁻¹ and the kon amounted to 1.81e+06 M⁻¹ s⁻¹. Further, the IC50 in [8] turned out to be 0.88 µg/mL.

B6: YC41D1, affinity-matured mutant clone of Ab1910VE9 displayed on yeast (VHH)
VHH: EVQLVESGGGLVQPGGSLRLSCAASGSTSDIVSMAWYRQAPGKERELVSAVLAPGWSYVEDSVKGRFTISRDNSKNTVYLQMNSLRAEDTAVYYCNVRLRITDERRRERLDYWGQGTLVTVSS
notes: also called antibody number Ab1910VE21
For the molecule B6, in experiment [4], the “Binding MFI” value is 337 MFI. The Binding force in [5] was 98.2.

B7: YC43B1, affinity-matured mutant clone of Ab1910VE9 displayed on yeast (VHH)
VHH: EVQLVESGGGLVQPGGSLRLSCAASGSTSDIVSMAWYRQAPGKERELVSAVFAEDWRYVEDSVKGRFTISRDNSKNTVYLQMNSLRAEDTAVYYCNVRLRITDWYSRERLDYWGQGTLVTVSS
notes: also called antibody number Ab1910VE24
For B7, in experiment [4], the “Binding MFI” value is 503 MFI. Moreover, the Binding force in [5] was found to be 114.

B8: Ab1910VE23 (expressed affinity-matured single domain antibody, clone YC43H2) (VHH)
VHH: EVQLVESGGGLVQPGGSLRLSCAASGSTSDIVSMAWYRQAPGKERELVSAVFAEDWRYVEDSVKGRFTISRDNSKNTVYLQMNSLRAEDTAVYYCNVRLRIPHQWRTERLDYWGQGTLVTVSS
In turn, B8 gave a Response value in experiment [6] of 0.116. In experiment [7], binding was characterised by a dissociation constant (Kd) of 0.728 nM, the off-rate (koff) amounted to 0.00104 s⁻¹ and the kon was 1.43e+06 M⁻¹ s⁻¹. The molecule also returned an IC50 in experiment [8] of 1.24 µg/mL.

B9: Ab1910VE21 (expressed affinity-matured single domain antibody, clone YC41D1) (VHH)
VHH: EVQLVESGGGLVQPGGSLRLSCAASGSTSDIVSMAWYRQAPGKERELVSAVLAPGWSYVEDSVKGRFTISRDNSKNTVYLQMNSLRAEDTAVYYCNVRLRITDERRRERLDYWGQGTLVTVSS
In turn, B9 had a Response value in experiment [6] of 0.154. In experiment [7], this molecule came in with a Kd of 0.413 nM, a koff of 0.00051 s⁻¹ and a kon of 1.24e+06 M⁻¹ s⁻¹. Besides, the concentration for half-maximal inhibition (IC50) in experiment [8] is 0.42 µg/mL.

B10: Ab1910VE8 (Hz20A6.2 humanized VHH fused with IgG1 Fc N297A) (Fc fusion)
VHH: EVQLVESGGGLVQPGGSLRLSCAASGSTSDIVSMAWYRQAPGKERELVSAVFAEDWRYVEDSVKGRFTISRDNSKNTVYLQMNSLRAEDTAVYYCNVRLRITDERRRERLDYWGKGTTVTVSS
notes: as for B2
With B10, in experiment [2], the Kd worked out at 10.5 nM, the koff turned out to be 0.0184 s⁻¹ and the kon came out at 1.75e+06 M⁻¹ s⁻¹. Further, the IC50 in experiment [3] was 4.18 µg/mL.

B11: Ab1910VE24 (expressed affinity-matured single domain antibody, clone YC43B1) (VHH)
VHH: EVQLVESGGGLVQPGGSLRLSCAASGSTSDIVSMAWYRQAPGKERELVSAVFAEDWRYVEDSVKGRFTISRDNSKNTVYLQMNSLRAEDTAVYYCNVRLRITDWYSRERLDYWGQGTLVTVSS
Regarding B11, the Response value in [6] is 0.153. In [7], this molecule had a Kd of 0.626 nM, a koff of 0.000857 s⁻¹ and a kon of 1.37e+06 M⁻¹ s⁻¹. This molecule also gave a concentration for half-maximal inhibition (IC50) in experiment [8] of 0.623 µg/mL.

B12: YC43H2, affinity-matured mutant clone of Ab1910VE9 displayed on yeast (VHH)
VHH: EVQLVESGGGLVQPGGSLRLSCAASGSTSDIVSMAWYRQAPGKERELVSAVFAEDWRYVEDSVKGRFTISRDNSKNTVYLQMNSLRAEDTAVYYCNVRLRIPHQWRTERLDYWGQGTLVTVSS
notes: also called antibody number Ab1910VE23
On to B12, for which, in [4], the “Binding MFI” value amounted to 358 MFI. For the same molecule, in experiment [5], the Binding force was determined as 129.

The record behind these values is patent US20240287168A1 (SHANGHAI JEMINCARE PHARMACEUTICAL, published 2024).
